This is an account of results in article PMC4469990 (2015).

Assay [1] deals with Factor VIII A3C1C2 subunit A3C1C2 (Homo sapiens) (UniProt P00451). Particulars: cited from earlier work.
The target in assay [2] is Factor VIII A1/A3C1C2 dimer A1/A3C1C2 (Homo sapiens) (UniProt P00451). Particulars: cited from earlier work.
For assay [3] the target is unchanged. Description: FXa generation assay. The conditions noted are these: cited from earlier work.
In assay [4] the target is T1, Factor VIIIa A1/A3C1C2 dimer A1/A3C1C2 (Homo sapiens, UniProt P00451).
T1 chain 1: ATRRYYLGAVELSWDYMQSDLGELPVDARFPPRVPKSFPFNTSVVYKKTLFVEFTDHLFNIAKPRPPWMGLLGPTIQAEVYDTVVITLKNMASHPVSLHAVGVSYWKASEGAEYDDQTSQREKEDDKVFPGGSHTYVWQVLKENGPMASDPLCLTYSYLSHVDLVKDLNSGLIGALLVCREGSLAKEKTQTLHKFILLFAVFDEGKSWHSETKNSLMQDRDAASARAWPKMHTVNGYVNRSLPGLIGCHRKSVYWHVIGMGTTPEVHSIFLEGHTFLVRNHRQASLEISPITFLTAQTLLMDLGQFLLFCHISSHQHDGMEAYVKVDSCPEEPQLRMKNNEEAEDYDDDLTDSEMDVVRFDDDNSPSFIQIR
T1 chain 2: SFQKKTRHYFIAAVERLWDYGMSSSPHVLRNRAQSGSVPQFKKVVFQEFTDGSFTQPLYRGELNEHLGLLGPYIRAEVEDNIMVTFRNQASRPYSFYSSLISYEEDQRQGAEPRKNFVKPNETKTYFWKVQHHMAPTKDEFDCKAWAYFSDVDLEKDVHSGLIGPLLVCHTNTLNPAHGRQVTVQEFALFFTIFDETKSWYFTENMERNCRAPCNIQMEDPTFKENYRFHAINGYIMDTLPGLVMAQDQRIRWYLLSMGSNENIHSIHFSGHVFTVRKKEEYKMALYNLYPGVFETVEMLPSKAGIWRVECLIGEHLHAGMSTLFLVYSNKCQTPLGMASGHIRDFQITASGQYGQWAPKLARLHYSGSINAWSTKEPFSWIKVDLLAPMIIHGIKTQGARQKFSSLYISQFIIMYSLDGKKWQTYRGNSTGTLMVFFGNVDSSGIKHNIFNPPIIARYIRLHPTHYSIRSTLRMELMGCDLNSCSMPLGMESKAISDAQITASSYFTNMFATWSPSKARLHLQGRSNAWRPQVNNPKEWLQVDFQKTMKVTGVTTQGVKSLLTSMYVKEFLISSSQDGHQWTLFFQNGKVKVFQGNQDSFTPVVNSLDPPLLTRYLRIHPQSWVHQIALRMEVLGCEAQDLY
Description: FVIIIa reconstitution assay.

Changes are numbered by the printed parent chain. Like-named read-outs stand apart in the source and are kept apart here.

For orientation: Kd means the concentration at which binding is half-saturated. On to “Factor VIII A1 subunit A1 (from UniProt P00451)”, for which the dissociation constant Kd in assay [1] was 0.06 µM.

As for “Factor VIII A2 subunit A2 (from UniProt P00451)”, the dissociation constant Kd in assay [2] is 0.26 µM; in assay [3], 0.03 µM.

B1: Factor VIIIa A2 subunit A2 (protein)
chain: SVAKKHPKTWVHYIAAEEEDWDYAPLVLAPDDRSYKSQYLNNGPQRIGRKYKKVRFMAYTDETFKTREAIQHESGILGPLLYGEVGDTLLIIFKNQASRPYNIYPHGITDVRPLYSRRLPKGVKHLKDFPILPGEIFKYKWTVTVEDGPTKSDPRCLTRYYSSFVNMERDLASGLIGPLLICYKESVDQRGNQIMSDKRNVILFSVFDENRSWYLTENIQRFLPNPAGVQLEDPEFQASNIMHSINGYVFDSLQLSVCLHEVAYWYILSIGAQTDFLSVFFSGYTFKHKMVYEDTLTLFPFSGETVFMSMENPGLWILGCHNSDFRNRGMTALLKVSSCDKNTGDYYEDSYEDISAYLLSKNNAIEPR
For B1, in assay [4], binding was put at a Kd of 0.0563 µM.

B2: Factor VIIIa A2 subunit A2 (protein)
chain: B1 chain with D128V
As for B2, the Kd in assay [4] came out at 0.01 µM.
